Measurements from paper doi:10.1101/2022.07.12.499507 (bioRxiv, 2022).

B1: Esa1 (enzyme)
chain: MSHDGKEEPGIAKKINSVDDIIIKCQCWVQKNDEERLAEILSINTRKAPPKFYVHYVNYNKRLDEWITTDRINLDKEVLYPKLKATDEDNKKQKKKKATNTSETPQDSLQDGVDGFSRENTDVMDLDNLNVQGIKDENISHEDEIKKLRTSGSMTQNPHEVARVRNLNRIIMGKYEIEPWYFSPYPIELTDEDFIYIDDFTLQYFGSKKQYERYRKKCTLRHPPGNEIYRDDYVSFFEIDGRKQRTWCRNLCLLSKLFLDHKTLYYDVDPFLFYCMTRRDELGHHLVGYFSKEKESADGYNVACILTLPQYQRMGYGKLLIEFSYELSKKENKVGSPEKPLSDLGLLSYRAYWSDTLITLLVEHQKEITIDEISSMTSMTTTDILHTAKTLNILRYYKGQHIIFLNEDILDRYNRLKAKKRRTIDPNRLIWKPPVFTASQLRFAW
B2: Eaf6 (natural protein)
chain: MTDELKSYEALKAELKKSLQDRREQEDTFDNLQQEIYDKETEYFSHNSNNNHSGHGGAHGSKSHYSGNIIKGFDTFSKSHHSHADSAFNNNDRIFSLSSATYVKQQHGQSQND
B3: Yng2 (natural protein)
chain: MDPSLVLEQTIQDVSNLPSEFRYLLEEIGSNDLKLIEEKKKYEQKESQIHKFIRQQGSIPKHPQEDGLDKEIKESLLKCQSLQREKCVLANTALFLIARHLNKLEKNIALLEEDGVLAPVEEDGDMDSAAEASRESSVVSNSSVKKRRAASSSGSVPPTLKKKKTSRTSKLQNEIDVSSREKSVTPVSPSIEKKIARTKEFKNSRNGKGQNGSPENEEEDKTLYCFCQRVSFGEMVACDGPNCKYEWFHYDCVNLKEPPKGTWYCPECKIEMEKNKLKRKRN
B4: Eaf3 (natural protein)
chain: MVDLEQEFALGGRCLAFHGPLMYEAKILKIWDPSSKMYTSIPNDKPGGSSQATKEIKPQKLGEDESIPEEIINGKCFFIHYQGWKSSWDEWVGYDRIRAYNEENIAMKKRLANEAKEAKKSLLEQQKKKKLSTSLGGPSNGGKRKGDSRSNASISKSTSQSFLTSSVSGRKSGRSSANSLHPGSSLRSSSDQNGNDDRRRSSSLSPNMLHHIAGYPTPKISLQIPIKLKSVLVDDWEYVTKDKKICRLPADVTVEMVLNKYEHEVSQELESPGSQSQLSEYCAGLKLYFDKCLGNMLLYRLERLQYDELLKKSSKDQKPLVPIRIYGAIHLLRLISVLPELISSTTMDLQSCQLLIKQTEDFLVWLLMHVDEYFNDKDPNRSDDALYVNTSSQYEGVALGM
B5: Gal4-VP16 fusion protein (other)
chain: MKLLSSIEQACDICRLKKLKCSKEKPKCAKCLKNNWECRYSPKTKRSPLTRAHLTEVESRLERLEQLFLLIFPREDLDMILKMDSLQDIKALLTGLFVQDNVNKDAVTDRLASVETDMPLTLRQHRISATSSSEESSNKGQRQLTVSAPPTDVSLGDELHLDGEDVAMAHADALDDFDLDMLGDGDSPGPGFTPHDSAPYGALDMADFEFEQMFTDALGIDEYGG
B6: Eaf1 (natural protein)
chain: MSSRPSSAVPNSASLSEDQSSDRSKFPKADDLIDERDRKLTELYCVSRLNQLLELTDENKLRKEIDAFLKKNDIRRGIRFDEASLPKLLHTAATPITKKKLKDVNLINVPNQRLSDSKMSRELPENSENVSVKSESHFVPSHDNSIRENMMDSLRPAEKTGGMWNKRPLESTMGGEEERHEKRQKMQSQSLESSNNSEMASLPISPRPPVPNALAHYTYYENIEYPPADPTEVQPAVKFKDPLIKNIMAKEIDTSDHYNENNVDALETVFLLMNDYIPSKIPQALPLAELKYMSQTLPLINLIPRAHKALTTNIINNALNEARITVVGSRIEELRRLGLWSLRQPKRFIDPWKQHNTHQNILLEEAKWMQADFKEGHKYKVAICTAMAQAIKDYWTYGEICCVKRKTLLPGKENKLSDDGRISEKSGRPSDTSRNDSDISIAGKDDIGIIANVDDITEKESAAANDNDENGKNEAGAKSDFDFADGLLSQEGAHDQIISSIDTKLLLKKPSSSSEVVLIQHEVAASSALIETEESKKELAPPFKLSIFVDELNTFEKTLIQDLPLYNGINEERPKKDDSLPFIPISKSVVSLDDNGFYKLLERQLIDEEPSISQLSKRRGMFYGNRRNHYLRPPAVPSLRYLQNRTPTIWLSEDDQELVKNINTYGYNWELISAHMTHRLTYSYLSNIERRTPWQCFERFVQLNERFNFSDLKGPRAHSAQQWLIEAHKFQQRQNRRISPLGVNTESIQRGHRRLRWASMFEAIRKCMKKRENTPRPNPTQPRKPLDCKNMKVPTPAEMSLLKAQRDEALRRDIQLRRTVKNRLQQRQQQSQQAHSSRAQSPIPSNGKSSSNLARNGQASAPRPNQKQYTEQDIIESYSRKLLEQKPDIGPEMALKAAKNYYRTLREQQQQLKQHQIQQQRQQLQEESSHVQQLQQLQPGSQAPPPKSSPSQSSLSNISNINSAPRIKSPTPQEILQRFQKQ
B7: Eaf2 (natural protein)
chain: MSSSDIFDVLNIKQKSRSPTNGQVSVPSSSAANRPKPQVTGMQRELFNLLGENQPPVVIKSGNNFKEKMLSTSKPSPWSFVEFKANNSVTLRHWVKGSKELIGDTPKESPYSKFNQHLSIPSFTKEEYEAFMNENEGTQKSVESEKNHNENFTNEKKDESKNSWSFEEIEYLFNLCKKYDLRWFLIFDRYSYNNSRTLEDLKEKFYYTCRNYFKASDPSNPLLSSLNFSAEKEIERKKYLQRLLSRSAAEIAEEEALVVESKKFEMAAKRTLAERESLLRLLDSPHSDQTITQYLTSQGMSQLYNALLADKTRKRKHDLNIPENPWMKQQQQFAQHRQLQQLNVKKSEVKENLSPKKTKRQRQEMQTALKRKSESAYAEQLLKDFNSDERKALGVITHGEKLSPGVYLRSTKLSTFKPALQNKILAILQELSLPSRPVMPSFDVMERQEELLKKINTLIDLKKHVDKYEAGMSITK
B8: Epl1 (natural protein)
chain: MPTPSNAIEINDGSHKSGRSTRRSGSRSAHDDGLDSFSKGDSGAGASAGSSNSRFRHRKISVKQHLKIYLPNDLKHLDKDELQQREVVEIETGVEKNEEKEVHLHRILQMGSGHTKHKDYIPTPDASMTWNEYDKFYTGSFQETTSYIKFSATVEDCCGTNYNMDERDETFLNEQVNKGSSDILTEDEFEILCSSFEHAIHERQPFLSMDPESILSFEELKPTLIKSDMADFNLRNQLNHEINSHKTHFITQFDPVSQMNTRPLIQLIEKFGSKIYDYWRERKIEVNGYEIFPQLKFERPGEKEEIDPYVCFRRREVRHPRKTRRIDILNSQRLRALHQELKNAKDLALLVAKRENVSLNWINDELKIFDQRVKIKNLKRSLNISGEDDDLINHKRKRPTIVTVEQREAELRKAELKRAAAAAAAAKAKNNKRNNQLEDKSSRLTKQQQQQLLQQQQQQQQNALKTENGKQLANASSSSTSQPITSHVYVKLPSSKIPDIVLEDVDALLNSKEKNARKFVQEKMEKRKIEDADVFFNLTDDPFNPVFDMSLPKNFSTSNVPFASIASSKFQIDRSFYSSHLPEYLKGISDDIRIYDSNGRSRNKDNYNLDTKRIKKTELYDPFQENLEIHSREYPIKFRKRVGRSNIKYVDRMPNFTTSSTKSACSLMDFVDFDSIEKEQYSREGSNDTDSINVYDSKYDEFVRLYDKWKYDSPQNEYGIKFSDEPARLNQISNDTQVIRFGTMLGTKSYEQLREATIKYRRDYITRLKQKHIQHLQQQQQQQQQQQQQAQQQKQKSQNNNSNSSNSLKKLNDSLINSEAKQNSSITQKNSS

How the values were obtained:
Epl1 [1] = target: B8; experiment: cryo-EM structure
Yng2 = target: B3; experiment: cryo-EM structure
Epl1 [2] = target: B8; experiment: cross-linking
Tra1 = Tra1 (Saccharomyces cerevisiae, UniProt P38811 1-3744); experiment: cross-linking
Eaf1 = target: B6; experiment: cryo-EM structure

Chain of Tra1 (P38811 whole entry): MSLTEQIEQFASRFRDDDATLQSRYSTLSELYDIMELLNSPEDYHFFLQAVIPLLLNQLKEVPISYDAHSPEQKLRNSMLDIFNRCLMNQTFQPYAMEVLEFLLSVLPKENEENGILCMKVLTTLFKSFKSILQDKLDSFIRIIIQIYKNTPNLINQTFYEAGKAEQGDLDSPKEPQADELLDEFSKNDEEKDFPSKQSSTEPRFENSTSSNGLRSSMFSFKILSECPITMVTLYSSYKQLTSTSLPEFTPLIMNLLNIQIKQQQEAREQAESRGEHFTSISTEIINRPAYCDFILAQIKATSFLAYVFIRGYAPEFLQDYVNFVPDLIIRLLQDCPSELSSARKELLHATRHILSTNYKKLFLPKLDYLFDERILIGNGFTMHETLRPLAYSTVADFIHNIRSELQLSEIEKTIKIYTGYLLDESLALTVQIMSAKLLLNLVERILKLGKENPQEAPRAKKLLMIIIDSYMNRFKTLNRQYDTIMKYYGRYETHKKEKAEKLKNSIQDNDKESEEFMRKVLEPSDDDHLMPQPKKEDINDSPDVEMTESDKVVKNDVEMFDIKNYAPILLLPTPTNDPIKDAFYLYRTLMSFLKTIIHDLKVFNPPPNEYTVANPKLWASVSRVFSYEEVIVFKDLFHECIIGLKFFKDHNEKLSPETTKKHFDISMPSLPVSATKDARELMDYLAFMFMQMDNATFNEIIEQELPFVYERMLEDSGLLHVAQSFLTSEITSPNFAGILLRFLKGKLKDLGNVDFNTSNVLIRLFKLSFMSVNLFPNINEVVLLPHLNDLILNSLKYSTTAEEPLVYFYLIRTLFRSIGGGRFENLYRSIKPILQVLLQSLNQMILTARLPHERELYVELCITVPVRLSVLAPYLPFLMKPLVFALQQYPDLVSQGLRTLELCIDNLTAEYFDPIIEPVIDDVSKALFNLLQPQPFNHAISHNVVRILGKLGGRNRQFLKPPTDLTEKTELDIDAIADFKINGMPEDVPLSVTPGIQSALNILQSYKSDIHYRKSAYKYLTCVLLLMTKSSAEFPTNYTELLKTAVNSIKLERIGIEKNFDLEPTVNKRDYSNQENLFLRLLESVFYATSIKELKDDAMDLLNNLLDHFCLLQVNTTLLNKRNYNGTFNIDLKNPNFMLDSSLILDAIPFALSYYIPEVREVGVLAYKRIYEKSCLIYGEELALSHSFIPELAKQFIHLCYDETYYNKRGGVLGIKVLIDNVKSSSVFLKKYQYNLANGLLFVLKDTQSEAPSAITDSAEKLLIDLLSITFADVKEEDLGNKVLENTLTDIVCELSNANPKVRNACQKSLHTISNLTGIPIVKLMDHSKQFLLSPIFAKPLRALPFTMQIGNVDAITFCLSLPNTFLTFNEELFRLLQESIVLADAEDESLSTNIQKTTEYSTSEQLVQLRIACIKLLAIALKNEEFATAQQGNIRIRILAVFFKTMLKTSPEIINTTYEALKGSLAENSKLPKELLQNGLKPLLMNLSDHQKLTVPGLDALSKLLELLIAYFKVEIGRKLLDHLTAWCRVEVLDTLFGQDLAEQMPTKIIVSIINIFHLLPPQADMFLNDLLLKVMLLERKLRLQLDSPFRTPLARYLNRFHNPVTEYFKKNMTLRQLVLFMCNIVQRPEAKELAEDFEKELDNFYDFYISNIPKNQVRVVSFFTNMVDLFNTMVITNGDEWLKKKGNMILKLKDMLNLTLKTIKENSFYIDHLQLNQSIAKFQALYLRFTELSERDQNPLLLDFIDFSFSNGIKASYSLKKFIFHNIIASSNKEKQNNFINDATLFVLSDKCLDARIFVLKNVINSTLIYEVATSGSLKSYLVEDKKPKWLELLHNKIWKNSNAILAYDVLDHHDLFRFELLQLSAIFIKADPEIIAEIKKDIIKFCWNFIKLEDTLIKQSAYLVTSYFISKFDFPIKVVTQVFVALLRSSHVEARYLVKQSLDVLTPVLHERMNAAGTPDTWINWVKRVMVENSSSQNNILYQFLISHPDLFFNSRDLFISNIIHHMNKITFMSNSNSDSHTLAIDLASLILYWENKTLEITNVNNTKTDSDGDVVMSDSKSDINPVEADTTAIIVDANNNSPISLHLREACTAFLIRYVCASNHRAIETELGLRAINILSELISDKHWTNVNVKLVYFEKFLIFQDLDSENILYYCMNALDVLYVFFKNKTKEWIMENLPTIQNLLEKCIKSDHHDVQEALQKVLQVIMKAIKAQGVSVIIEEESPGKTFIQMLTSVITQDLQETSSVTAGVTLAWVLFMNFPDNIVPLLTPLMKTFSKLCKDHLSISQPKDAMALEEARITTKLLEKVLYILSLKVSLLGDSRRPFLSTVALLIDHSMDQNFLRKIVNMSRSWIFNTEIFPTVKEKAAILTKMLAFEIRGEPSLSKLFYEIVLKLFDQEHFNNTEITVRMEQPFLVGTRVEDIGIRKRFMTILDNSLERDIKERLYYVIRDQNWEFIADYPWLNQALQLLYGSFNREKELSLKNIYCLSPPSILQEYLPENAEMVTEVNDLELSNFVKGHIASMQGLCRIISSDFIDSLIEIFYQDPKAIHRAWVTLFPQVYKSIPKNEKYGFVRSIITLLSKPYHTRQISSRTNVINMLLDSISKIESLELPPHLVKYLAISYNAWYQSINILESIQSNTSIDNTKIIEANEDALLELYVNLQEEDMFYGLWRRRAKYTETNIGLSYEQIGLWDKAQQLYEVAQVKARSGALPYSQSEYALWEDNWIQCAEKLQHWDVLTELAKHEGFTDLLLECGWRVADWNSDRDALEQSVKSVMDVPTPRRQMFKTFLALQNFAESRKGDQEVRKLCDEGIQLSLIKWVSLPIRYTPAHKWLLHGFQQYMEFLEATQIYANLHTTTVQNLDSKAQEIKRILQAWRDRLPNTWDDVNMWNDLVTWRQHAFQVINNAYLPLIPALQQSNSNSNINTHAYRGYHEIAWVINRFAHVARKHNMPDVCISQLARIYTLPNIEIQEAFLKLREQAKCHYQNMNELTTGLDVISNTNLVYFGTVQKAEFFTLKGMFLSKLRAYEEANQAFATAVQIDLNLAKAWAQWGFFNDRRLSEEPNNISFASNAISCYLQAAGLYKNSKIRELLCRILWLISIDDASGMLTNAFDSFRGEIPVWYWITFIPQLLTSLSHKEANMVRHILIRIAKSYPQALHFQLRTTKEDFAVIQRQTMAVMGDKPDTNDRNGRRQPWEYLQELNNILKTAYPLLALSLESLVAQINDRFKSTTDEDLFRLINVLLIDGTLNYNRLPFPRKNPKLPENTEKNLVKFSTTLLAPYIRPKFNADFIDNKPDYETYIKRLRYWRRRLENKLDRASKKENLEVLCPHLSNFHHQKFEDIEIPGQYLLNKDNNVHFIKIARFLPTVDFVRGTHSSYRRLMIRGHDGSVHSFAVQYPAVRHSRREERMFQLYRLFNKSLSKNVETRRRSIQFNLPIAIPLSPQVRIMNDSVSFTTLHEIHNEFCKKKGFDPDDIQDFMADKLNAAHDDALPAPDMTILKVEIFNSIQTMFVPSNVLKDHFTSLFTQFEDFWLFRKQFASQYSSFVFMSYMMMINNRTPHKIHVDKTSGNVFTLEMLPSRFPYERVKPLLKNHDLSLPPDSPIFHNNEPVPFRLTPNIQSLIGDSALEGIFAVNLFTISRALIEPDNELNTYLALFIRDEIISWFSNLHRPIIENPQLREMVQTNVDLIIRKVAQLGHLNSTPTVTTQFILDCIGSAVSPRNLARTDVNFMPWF

B1: binds (Epl1 [1]).

B2: binds (Epl1 [1]); binds (Yng2).

B3: binds (Epl1 [1]).

B4: binds (Epl1 [2]).

B5: binds (Tra1).

B6: binds (Tra1).

B7: binds (Eaf1).

B8: binds (Eaf1).
